From publication PMC10287707

Assays:
TIA1 RRM2_3 = molecular target: T1, TIA1 RRM2_3 (human, UniProt P31483-2 93-274); assay: EMSA; EMSA: 10 mM sodium phosphate pH 6.5, 50 mM NaCl, 1 mM DTT, 1 U/ul SUPERase-In, room temperature 20 min, native 1.2% agarose; RNA annealed in 10 mM Tris-HCl pH 7.5, 100 mM KCl; conditions: protein: recombinant, tags: His6-SUMO removed by SUMO protease, label: 5'-Cy3
T1 sequence: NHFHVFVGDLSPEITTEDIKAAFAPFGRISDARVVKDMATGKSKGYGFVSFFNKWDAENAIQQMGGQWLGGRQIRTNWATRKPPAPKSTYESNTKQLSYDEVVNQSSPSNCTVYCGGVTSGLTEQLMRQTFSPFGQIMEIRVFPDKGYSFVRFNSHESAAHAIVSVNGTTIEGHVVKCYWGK

TIA1 RRM1-3 = molecular target: T2, TIA1 RRM1-3 (human, UniProt P31483-2 1-274); assay: as above; conditions: protein: recombinant; tags: His6-SUMO, removed (same protocol as RRM2_3); label: 5'-Cy3; single strand
T2 sequence: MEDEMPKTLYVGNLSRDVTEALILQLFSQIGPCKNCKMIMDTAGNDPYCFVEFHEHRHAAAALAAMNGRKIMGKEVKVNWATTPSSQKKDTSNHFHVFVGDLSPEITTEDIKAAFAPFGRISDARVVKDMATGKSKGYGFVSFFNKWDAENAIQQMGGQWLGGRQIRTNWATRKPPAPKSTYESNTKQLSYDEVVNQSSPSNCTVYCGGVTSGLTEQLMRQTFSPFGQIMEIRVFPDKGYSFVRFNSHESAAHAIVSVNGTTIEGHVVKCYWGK

Binder UUUCGAUCUCUUGUAGAUCUGUUCUCUAAACGAACUUUAAAAUCU (structured_RNA) [SL2+SL3] has a Kd (TIA1 RRM2_3; two hairpins) of 430 ± 50 nM.

Work on UGUUCUCUAAACGAACUUUAA (structured_RNA) [SL3] yielded a Kd (TIA1 RRM2_3) of 780 ± 90 nM.

In the case of UUUCGAUCUCUUGUAGAUC (structured_RNA) [SL2], the Kd (TIA1 RRM2_3; hairpin, 5-nt loop) is reported as 2470 ± 370 nM.

In the case of UCACUCUUGAACGAACUUAAA (structured_RNA) [RousettusHKU9 SL3], the Kd (TIA1 RRM2_3) is reported as 410 ± 20 nM.

UUUUUUUUUUU (ssRNA) [U11]: binds (TIA1 RRM1-3); binds (TIA1 RRM2_3; single strand).

Binder UUUGAUUUUAACGAACUUAAA (structured_RNA) [MERS SL3] has a Kd (TIA1 RRM2_3) of 300 ± 20 nM.
